Measured values reported in the RNAGym collection of RNA variant scans (doi:10.7554/elife.80360).

B1: Hairpin Ribozyme (parent)
chain: GUCCUCUUUCACGUGCGCGUGAAAGAGAGAAGUGAACCAGAGAAACACACGUUGUGGUAUAUUACCUGGUA

Variants of: B1
Assay: self-cleavage, relative activity (ratio to wild type); higher = more cleavage; co-transcriptional

Variant | self-cleavage
GUCCUCCUUCACGUGCGCGUGAAAGAGAGAAGUGAACCAGAGAAACACCCGUUGUGGUAUAUUACCUGGUA [U7C A49C] | 0.0316
GUCCUCCUUCACGUGCGCGUGAAAGAGAGAAGUGAACCAGAGAAACACACGUUGUGGUCUAUUACCUGGUA [U7C A59C] | 0.251
GUCCUCCUUCACGUGCGCGUGAAAGAGAGAAGUGAACCAGAGAAACACACGUUGUGGUAUCUUACCUGGUA [U7C A61C] | 0.11
GUCCUCCUUCACGUGCGCGUGAAAGAGAGAAGUGAACCAGAGAAACACACGUUGUGGUAUAUUCCCUGGUA [U7C A64C] | 0.26
GUCCUCCUUCACGUGCGCGUGAAAGAGAGAAGUGAACCAGAGAAACACACGUUGUGGUAUAUUGCCUGGUA [U7C A64G] | 0.458
GUCCUCCUUCACGUGCGCGUGAAAGAGAGAAGUGAACCAGAGAAACACACGUUGUGGUAUAUUACCUGGUC [U7C A71C] | 1.35
GUCCUCCUUCACGUGCGCGUGAAAGAGAGAAGUGAACCAGAGAAACACACGUUGUGGUAUAUUACCUGGUG [U7C A71G] | 1.13
GUCCUCCUUAACGUGCGCGUGAAAGAGAGAAGUGAACCAGAGAAACACACGUUGUGGUAUAUUACCUGGUA [U7C C10A] | 0.815
GUCCUCCUUUACGUGCGCGUGAAAGAGAGAAGUGAACCAGAGAAACACACGUUGUGGUAUAUUACCUGGUA [U7C C10U] | 0.9
GUCCUCCUUCAUGUGCGCGUGAAAGAGAGAAGUGAACCAGAGAAACACACGUUGUGGUAUAUUACCUGGUA [U7C C12U] | 0.89
GUCCUCCUUCACGUGAGCGUGAAAGAGAGAAGUGAACCAGAGAAACACACGUUGUGGUAUAUUACCUGGUA [U7C C16A] | 0.913
GUCCUCCUUCACGUGGGCGUGAAAGAGAGAAGUGAACCAGAGAAACACACGUUGUGGUAUAUUACCUGGUA [U7C C16G] | 0.456
GUCCUCCUUCACGUGCGCGUGAAAGAGAGAAGUGAAACAGAGAAACACACGUUGUGGUAUAUUACCUGGUA [U7C C37A] | 0.37
GUCCUCCUUCACGUGCGCGUGAAAGAGAGAAGUGAAGCAGAGAAACACACGUUGUGGUAUAUUACCUGGUA [U7C C37G] | 0.273
GUCCUCCUUCACGUGCGCGUGAAAGAGAGAAGUGAACCAGAGAAAGACACGUUGUGGUAUAUUACCUGGUA [U7C C46G] | 0.124
GUCCUCCUUCACGUGCGCGUGAAAGAGAGAAGUGAACCAGAGAAACAUACGUUGUGGUAUAUUACCUGGUA [U7C C48U] | 0.279
GUCCUCCUUCACGUGCGCGUGAAAGAGAGAAGUGAACCAGAGAAACACACGUUGUGGUAUAUUAGCUGGUA [U7C C65G] | 0.357
GUCCUCCUUCACGUACGCGUGAAAGAGAGAAGUGAACCAGAGAAACACACGUUGUGGUAUAUUACCUGGUA [U7C G15A] | 0.753
GUCCUCCUUCACGUGCACGUGAAAGAGAGAAGUGAACCAGAGAAACACACGUUGUGGUAUAUUACCUGGUA [U7C G17A] | 0.863

Variant | self-cleavage
GUCCUCCUUCACGUGCGCGUAAAAGAGAGAAGUGAACCAGAGAAACACACGUUGUGGUAUAUUACCUGGUA [U7C G21A] | 0.618
GUCCUCCUUCACGUGCGCGUGAAACAGAGAAGUGAACCAGAGAAACACACGUUGUGGUAUAUUACCUGGUA [U7C G25C] | 0.251
GUCCUCCUUCACGUGCGCGUGAAAGAAAGAAGUGAACCAGAGAAACACACGUUGUGGUAUAUUACCUGGUA [U7C G27A] | 0.386
GUCCUCCUUCACGUGCGCGUGAAAGACAGAAGUGAACCAGAGAAACACACGUUGUGGUAUAUUACCUGGUA [U7C G27C] | 0.172
GUCCUCCUUCACGUGCGCGUGAAAGAGAGAAUUGAACCAGAGAAACACACGUUGUGGUAUAUUACCUGGUA [U7C G32U] | 0.261
GUCCUCCUUCACGUGCGCGUGAAAGAGAGAAGUGAACCAAAGAAACACACGUUGUGGUAUAUUACCUGGUA [U7C G40A] | 0.334
GUCCUCCUUCACGUGCGCGUGAAAGAGAGAAGUGAACCAGAAAAACACACGUUGUGGUAUAUUACCUGGUA [U7C G42A] | 0.287
GUCCUCCUUCACGUGCGCGUGAAAGAGAGAAGUGAACCAGACAAACACACGUUGUGGUAUAUUACCUGGUA [U7C G42C] | 0.245
GUCCUCCUUCACGUGCGCGUGAAAGAGAGAAGUGAACCAGAUAAACACACGUUGUGGUAUAUUACCUGGUA [U7C G42U] | 0.205
GUCCUCCUUCACGUGCGCGUGAAAGAGAGAAGUGAACCAGAGAAACACACAUUGUGGUAUAUUACCUGGUA [U7C G51A] | 0.69
GUCCUCCUUCACGUGCGCGUGAAAGAGAGAAGUGAACCAGAGAAACACACGUUGUGGUAUAUUACCUCGUA [U7C G68C] | 0.302
GUCCUCCUUCACGUGCGCGUGAAAGAGAGAAGUGAACCAGAGAAACACACGUUGUGGUAUAUUACCUGAUA [U7C G69A] | 0.289
GUCCUCCGUCACGUGCGCGUGAAAGAGAGAAGUGAACCAGAGAAACACACGUUGUGGUAUAUUACCUGGUA [U7C U8G] | 0.484
GUCCUCCUCCACGUGCGCGUGAAAGAGAGAAGUGAACCAGAGAAACACACGUUGUGGUAUAUUACCUGGUA [U7C U9C] | 0.673
GUCCUCCUGCACGUGCGCGUGAAAGAGAGAAGUGAACCAGAGAAACACACGUUGUGGUAUAUUACCUGGUA [U7C U9G] | 0.35
GUCCUCCUUCACGCGCGCGUGAAAGAGAGAAGUGAACCAGAGAAACACACGUUGUGGUAUAUUACCUGGUA [U7C U14C] | 0.925
GUCCUCCUUCACGGGCGCGUGAAAGAGAGAAGUGAACCAGAGAAACACACGUUGUGGUAUAUUACCUGGUA [U7C U14G] | 0.723
GUCCUCCUUCACGUGCGCGUGAAAGAGAGAAGAGAACCAGAGAAACACACGUUGUGGUAUAUUACCUGGUA [U7C U33A] | 0.068
GUCCUCCUUCACGUGCGCGUGAAAGAGAGAAGUGAACCAGAGAAACACACGAUGUGGUAUAUUACCUGGUA [U7C U52A] | 0.82
